Tests used:
Experiment in all cases: indirect ELISA, cross-reaction on 9 HPV type antigens
HPV18亚型抗原 = target: T1, HPV18亚型抗原 (Human papillomavirus type 18, UniProt P06794 62-568)
T1 construct: Called only 'HPV18 antigen'
T1 sequence: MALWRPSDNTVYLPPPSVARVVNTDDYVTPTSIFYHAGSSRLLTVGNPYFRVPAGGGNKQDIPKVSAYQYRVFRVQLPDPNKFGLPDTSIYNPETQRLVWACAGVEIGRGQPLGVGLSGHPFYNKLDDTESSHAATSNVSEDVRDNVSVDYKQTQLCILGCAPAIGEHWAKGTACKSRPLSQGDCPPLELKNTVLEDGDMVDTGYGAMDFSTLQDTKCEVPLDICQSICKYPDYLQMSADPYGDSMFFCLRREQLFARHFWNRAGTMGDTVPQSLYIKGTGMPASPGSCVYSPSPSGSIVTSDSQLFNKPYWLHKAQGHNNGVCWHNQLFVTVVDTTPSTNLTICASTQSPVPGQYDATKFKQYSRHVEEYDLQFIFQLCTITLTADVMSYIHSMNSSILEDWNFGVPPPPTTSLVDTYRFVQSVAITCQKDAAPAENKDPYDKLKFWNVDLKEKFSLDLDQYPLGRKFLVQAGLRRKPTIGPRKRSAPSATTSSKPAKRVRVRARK

HPV 58亚型抗原 = target: T2, HPV 58亚型抗原 (Human papillomavirus type 58, UniProt P26535 27-524)
T2 construct: Called only 'HPV 58 antigen'
T2 sequence: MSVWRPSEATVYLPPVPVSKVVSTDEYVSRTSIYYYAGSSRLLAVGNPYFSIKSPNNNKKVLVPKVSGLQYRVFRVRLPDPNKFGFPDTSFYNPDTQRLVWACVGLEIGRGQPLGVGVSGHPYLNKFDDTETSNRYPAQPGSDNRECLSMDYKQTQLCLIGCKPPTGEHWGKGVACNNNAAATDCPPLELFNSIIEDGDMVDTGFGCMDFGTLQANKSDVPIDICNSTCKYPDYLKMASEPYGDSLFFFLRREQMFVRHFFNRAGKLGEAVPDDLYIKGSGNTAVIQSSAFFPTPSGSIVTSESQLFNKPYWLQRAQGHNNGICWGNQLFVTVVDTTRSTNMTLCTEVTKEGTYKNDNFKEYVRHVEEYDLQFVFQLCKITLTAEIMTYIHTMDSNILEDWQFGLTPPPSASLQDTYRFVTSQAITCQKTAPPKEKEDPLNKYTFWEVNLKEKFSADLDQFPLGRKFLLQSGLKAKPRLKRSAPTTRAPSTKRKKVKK

HPV 16亚型抗原 = target: T3, HPV 16亚型抗原 (Human papillomavirus type 16, UniProt P03101 1-505)
T3 construct: Called only 'HPV 16 antigen'
T3 sequence: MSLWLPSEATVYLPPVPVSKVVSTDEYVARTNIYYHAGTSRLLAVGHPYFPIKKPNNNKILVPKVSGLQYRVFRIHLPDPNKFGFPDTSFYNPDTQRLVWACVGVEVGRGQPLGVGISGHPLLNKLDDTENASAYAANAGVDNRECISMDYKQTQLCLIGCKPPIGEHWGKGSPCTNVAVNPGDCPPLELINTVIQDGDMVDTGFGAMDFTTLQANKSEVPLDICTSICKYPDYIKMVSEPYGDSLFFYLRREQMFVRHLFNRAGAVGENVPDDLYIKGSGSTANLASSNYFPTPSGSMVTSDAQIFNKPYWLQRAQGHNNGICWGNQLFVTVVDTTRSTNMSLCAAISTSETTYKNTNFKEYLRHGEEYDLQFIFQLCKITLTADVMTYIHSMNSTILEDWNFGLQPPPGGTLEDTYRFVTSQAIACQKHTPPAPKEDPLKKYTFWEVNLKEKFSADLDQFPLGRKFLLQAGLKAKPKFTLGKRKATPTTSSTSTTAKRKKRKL

HPV 45亚型抗原 = target: T4, HPV 45亚型抗原 (Human papillomavirus type 45, UniProt P36741 30-539)
T4 construct: Called only 'HPV 45 antigen'
T4 sequence: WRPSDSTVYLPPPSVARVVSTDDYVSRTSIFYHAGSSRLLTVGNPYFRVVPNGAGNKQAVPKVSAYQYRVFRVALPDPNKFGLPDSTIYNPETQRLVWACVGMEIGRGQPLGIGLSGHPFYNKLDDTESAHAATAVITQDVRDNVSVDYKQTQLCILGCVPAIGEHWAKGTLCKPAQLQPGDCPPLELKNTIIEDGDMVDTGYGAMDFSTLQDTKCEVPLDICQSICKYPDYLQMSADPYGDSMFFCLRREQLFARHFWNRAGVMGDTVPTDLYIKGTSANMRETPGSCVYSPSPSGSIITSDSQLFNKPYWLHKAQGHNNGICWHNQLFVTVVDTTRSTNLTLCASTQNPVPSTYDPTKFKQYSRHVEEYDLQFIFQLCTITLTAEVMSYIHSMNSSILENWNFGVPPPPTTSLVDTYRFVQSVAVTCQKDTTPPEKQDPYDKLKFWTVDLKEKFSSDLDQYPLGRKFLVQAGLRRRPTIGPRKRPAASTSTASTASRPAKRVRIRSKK

HPV11亚型抗原 = target: T5, HPV11亚型抗原 (Human papillomavirus type 11, UniProt P04012 1-501)
T5 construct: Called only 'HPV11 antigen'
T5 sequence: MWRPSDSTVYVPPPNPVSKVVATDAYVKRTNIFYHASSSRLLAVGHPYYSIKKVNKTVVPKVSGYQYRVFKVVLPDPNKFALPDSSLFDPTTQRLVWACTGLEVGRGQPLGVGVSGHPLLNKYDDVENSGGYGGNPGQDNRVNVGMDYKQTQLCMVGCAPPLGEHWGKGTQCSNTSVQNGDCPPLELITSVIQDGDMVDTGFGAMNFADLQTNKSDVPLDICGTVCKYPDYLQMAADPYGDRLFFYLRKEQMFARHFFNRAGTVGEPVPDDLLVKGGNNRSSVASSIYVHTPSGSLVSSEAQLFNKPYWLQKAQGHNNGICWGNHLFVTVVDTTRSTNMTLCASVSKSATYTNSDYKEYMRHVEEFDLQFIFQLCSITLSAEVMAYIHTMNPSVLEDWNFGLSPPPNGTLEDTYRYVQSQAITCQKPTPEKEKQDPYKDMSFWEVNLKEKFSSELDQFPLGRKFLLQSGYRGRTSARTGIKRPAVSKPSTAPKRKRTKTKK

HPV 33亚型抗原 = target: T6, HPV 33亚型抗原 (Human papillomavirus type 33, UniProt P06416 1-499)
T6 construct: Called only 'HPV 33 antigen'
T6 sequence: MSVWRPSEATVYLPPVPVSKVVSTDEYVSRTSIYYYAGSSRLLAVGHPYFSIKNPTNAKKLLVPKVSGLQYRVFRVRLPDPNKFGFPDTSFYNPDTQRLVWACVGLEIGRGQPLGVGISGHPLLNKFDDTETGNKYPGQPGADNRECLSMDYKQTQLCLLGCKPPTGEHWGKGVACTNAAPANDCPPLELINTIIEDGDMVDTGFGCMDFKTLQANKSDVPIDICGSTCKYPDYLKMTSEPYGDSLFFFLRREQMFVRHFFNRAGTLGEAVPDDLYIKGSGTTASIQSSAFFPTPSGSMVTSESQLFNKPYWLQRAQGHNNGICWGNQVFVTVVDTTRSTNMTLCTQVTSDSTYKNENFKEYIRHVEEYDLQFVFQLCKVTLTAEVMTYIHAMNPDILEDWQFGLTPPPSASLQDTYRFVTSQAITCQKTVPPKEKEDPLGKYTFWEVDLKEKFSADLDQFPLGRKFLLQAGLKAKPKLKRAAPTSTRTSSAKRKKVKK

B1: HPV31型单克隆抗体(7H9) (antibody, V domains shown)
VH: QIQLVQSGPELKKPGETVKISCKASGYTFTNYGMNWVKQAPGKGLKWMGWINTYTGEPTYADDFKGRFAFSLETSANTAYLQITNLKNEDMATYFCARRITMEYYYGLDCWGQGTSVTVSS
VL: QAVVTQESALTTSPGETVTLTCRSSTGAVTTSNYANWVQEKPDHLFSGLIGGTNNRVPGVPARFSGSLIGDKAALTITGAQTEDEAIYFCALWYSNHWVFGGGTKLTVL
notes: also called 7H9抗体; HPV31型(7H9)鼠单抗
Q: Does B1 bind (HPV18亚型抗原)?
A: no binding (tested: 抗原1μg/ml包被; 杂交瘤细胞上清20倍稀释)

Q: Does B1 bind (HPV 58亚型抗原)?
A: no binding (tested: 抗原1μg/ml包被; 杂交瘤细胞上清20倍稀释)

Q: Does B1 bind (HPV 16亚型抗原)?
A: no binding (tested: 抗原1μg/ml包被; 杂交瘤细胞上清20倍稀释)

Q: Does B1 bind (HPV 45亚型抗原)?
A: no binding (tested: 抗原1μg/ml包被; 杂交瘤细胞上清20倍稀释)

Q: Does B1 bind (HPV11亚型抗原)?
A: no binding (tested: 抗原1μg/ml包被; 杂交瘤细胞上清20倍稀释)

Q: Does B1 bind (HPV 33亚型抗原)?
A: no binding (tested: 抗原1μg/ml包被; 杂交瘤细胞上清20倍稀释)
